From patent US20240092888A1 (AULOS BIOSCIENCE, published 2024)
Positions count from the first letter of the chain named. Each block holds one binder with its values, some of them ahead of it.

Assays:
human IL-2 [1] = target: T1, human IL-2 (human, UniProt P60568 21-153); test: yeast surface display flow cytometry, 0.1 nM hIL-2, MFI normalized to expression
T1 construct: SPR used Reprokine human IL-2; the result sentences say only hIL-2 or labeled human IL-2, so the same molecule is used here; also called hIL-2; recombinant human IL-2
T1 sequence (P60568 21-153 limits assumed): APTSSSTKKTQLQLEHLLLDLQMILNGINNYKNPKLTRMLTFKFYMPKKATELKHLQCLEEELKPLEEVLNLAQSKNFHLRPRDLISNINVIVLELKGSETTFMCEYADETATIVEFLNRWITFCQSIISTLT

human IL-2 [2] = target: T1, human IL-2; test: yeast surface display, selection against human IL-2
[3] = target: T2, BDG17.038 complexed with hIL-2 (human, UniProt P60568 21-153); test: SPR, captured BDG17.038 loaded with 50 nM hIL-2, CD25 injected before CD122
T2 construct: Humanized IgG1 captured on the SPR chip and saturated with 50 nM hIL-2; also called BDG17.038/hIL-2
T2 sequence (VH, as listed by the source limits assumed, chain 1 of 3): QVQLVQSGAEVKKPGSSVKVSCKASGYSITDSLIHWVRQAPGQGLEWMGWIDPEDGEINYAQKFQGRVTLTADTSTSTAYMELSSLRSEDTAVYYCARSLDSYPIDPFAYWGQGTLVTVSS
T2 sequence (VL, as listed by the source limits assumed, chain 2 of 3): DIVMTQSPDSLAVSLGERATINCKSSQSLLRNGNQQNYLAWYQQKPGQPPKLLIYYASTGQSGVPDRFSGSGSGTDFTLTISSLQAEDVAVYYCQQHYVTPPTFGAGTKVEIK
T2 sequence (P60568 21-153 limits assumed, chain 3 of 3): as the sequence (P60568 21-153 limits assumed) above
Text: (§1) FIGS. 17A-17B. Present receptor discrimination of indicated antibody/IL-2 complex by tracing of SPR response. Antibody was immobilized to the CM5 chip, and hIL-2, CD122, and CD25 were streamed as indicated with an arrow. FIG. 17A presents a schematic order of injection of compounds to SPR chip, that represents sequential anti-IL-2 antibodies complexed with human IL-2 (hIL2), binding to CD122 but not to CD25.

[4] = target: T3, BDG17.043 complexed with hIL-2 (human, UniProt P60568 21-153); test: SPR, captured BDG17.043 loaded with 50 nM hIL-2, CD25 injected before CD122
T3 construct: Humanized IgG1 captured on the SPR chip and saturated with 50 nM hIL-2; also called BDG17.043/hIL-2
T3 sequence (VH, as listed by the source limits assumed, chain 1 of 3): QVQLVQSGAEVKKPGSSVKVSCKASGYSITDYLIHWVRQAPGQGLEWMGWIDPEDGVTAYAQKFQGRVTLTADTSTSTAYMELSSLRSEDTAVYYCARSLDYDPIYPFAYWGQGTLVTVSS
T3 sequence (VL, as listed by the source limits assumed, chain 2 of 3): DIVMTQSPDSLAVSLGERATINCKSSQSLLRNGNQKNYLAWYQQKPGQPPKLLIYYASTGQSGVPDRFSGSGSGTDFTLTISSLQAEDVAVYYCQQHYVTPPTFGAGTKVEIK
T3 sequence (P60568 21-153 limits assumed, chain 3 of 3): as the sequence (P60568 21-153 limits assumed) above
Text: as §1

BDG17.023-hIL-2 complex = target: T4, BDG17.023-hIL-2 complex (human, UniProt P60568 21-153); test: SPR, BDG17.023 on the CM5 chip loaded with 50 nM hIL-2, CD122 then CD25 1000 nM
T4 construct: BDG17.023 (human IgG1 chimera) on the SPR chip saturated with 50 nM hIL-2; also called BDG17.023-IL-2 complex; Ab-IL-2 complex
T4 sequence (P60568 21-153 limits assumed, one chain of several): as the sequence (P60568 21-153 limits assumed) above
Method: To test specific binding to CD25, BDG17.023 was immobilized to the CM5 chip to a target RU of approximately 300 RU as described above. Subsequently, 50 nM IL-2 was injected till the BDG17.023 or control antibody were saturated. Then the Ab-IL-2 complex was washed with PBS-T buffer for 10 sec and 1000 nM of CD25 was injected and monitored for response.
To test specific binding to CD122, BDG17.023 was immobilized to the CM5 chip to a target RU of approximately 300 RU-500 RU as described above. Subsequently, 50 nM hIL-2 was injected till the BDG17.023 antibody was saturated with hIL-2. Next the Ab-IL-2 complex was washed with PBS-T buffer for 10 sec and 1000 nM of CD122 was injected and response was monitored.

[5] = target: T5, BDG17.053 complexed with hIL-2 (human, UniProt P60568 21-153); test: SPR, captured antibody saturated with 50 nM hIL-2, then CD25 and CD122 injected in both orders
T5 construct: Humanized IgG1 captured on the SPR chip and saturated with 50 nM hIL-2
T5 sequence (VH, as listed by the source limits assumed, chain 1 of 3): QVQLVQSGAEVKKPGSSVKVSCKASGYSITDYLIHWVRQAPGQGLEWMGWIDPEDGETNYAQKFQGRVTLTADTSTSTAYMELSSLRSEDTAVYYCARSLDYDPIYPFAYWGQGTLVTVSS
T5 sequence (VL, as listed by the source limits assumed, chain 2 of 3): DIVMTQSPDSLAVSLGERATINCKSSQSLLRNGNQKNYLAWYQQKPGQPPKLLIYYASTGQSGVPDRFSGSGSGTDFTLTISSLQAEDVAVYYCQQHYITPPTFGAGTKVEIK
T5 sequence (P60568 21-153 limits assumed, chain 3 of 3): as the sequence (P60568 21-153 limits assumed) above
Method: (§2) To test specific binding of the humanized antibodies IL-2 complex to CD122 and CD25, antibodies BDG17.038, BDG17.043, BDG17.053, BDG17.054, BDG17.067, BDG17.069 (See, Tables 6 and 7 of Example 2 for sequence information for these clones) were immobilized to an a capture antibody attached to CM5 chip channel to a target RU of approximately 300 RU as described above. Subsequently, 50 nM IL-2 was injected till the respective antibody was saturated with hIL-2. Then the Ab-IL-2 complex was washed with PBS-T buffer for 60 sec and 1000 nM of CD25 was injected and monitored for response. Subsequently, running buffer was injected for 60 seconds to reach a steady baseline, and then 1000 nM of CD122 was injected for 30 seconds in a flow rate of 30 ul/min. To test CD122 binding, the same experiment was repeated in reverse order, with CD122 injected first flowed by injection of CD25.

[6] = target: T6, BDG17.066 complexed with hIL-2 (human, UniProt P60568 21-153); test: SPR, captured BDG17.066 loaded with hIL-2, CD25 injected before CD122 and again after CD122
T6 construct: Humanized IgG1 LALA on the SPR chip saturated with hIL-2
T6 sequence (heavy, as listed by the source limits assumed, chain 1 of 3): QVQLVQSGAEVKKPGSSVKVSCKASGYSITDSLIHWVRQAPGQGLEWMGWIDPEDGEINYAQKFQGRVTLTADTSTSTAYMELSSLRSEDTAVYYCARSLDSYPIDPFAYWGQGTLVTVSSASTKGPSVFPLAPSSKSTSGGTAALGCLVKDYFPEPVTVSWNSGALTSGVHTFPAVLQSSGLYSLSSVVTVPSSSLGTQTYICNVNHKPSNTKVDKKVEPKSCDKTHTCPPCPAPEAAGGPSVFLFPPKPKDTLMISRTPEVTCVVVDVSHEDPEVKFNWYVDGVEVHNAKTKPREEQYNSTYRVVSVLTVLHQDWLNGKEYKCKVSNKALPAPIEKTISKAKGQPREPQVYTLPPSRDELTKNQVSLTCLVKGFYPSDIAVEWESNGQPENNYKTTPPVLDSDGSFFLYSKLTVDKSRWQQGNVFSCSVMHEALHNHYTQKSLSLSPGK
T6 sequence (light, as listed by the source limits assumed, chain 2 of 3): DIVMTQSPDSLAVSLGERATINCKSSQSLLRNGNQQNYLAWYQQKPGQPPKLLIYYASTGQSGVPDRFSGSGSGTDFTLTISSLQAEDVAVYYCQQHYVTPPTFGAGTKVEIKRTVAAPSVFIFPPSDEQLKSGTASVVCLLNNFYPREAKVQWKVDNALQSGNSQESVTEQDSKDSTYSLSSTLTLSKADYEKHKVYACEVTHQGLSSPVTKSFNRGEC
T6 sequence (P60568 21-153 limits assumed, chain 3 of 3): as the sequence (P60568 21-153 limits assumed) above
Text: as §1

[7] = target: T7, BDG17.067 complexed with hIL-2 (human, UniProt P60568 21-153); test: SPR, captured BDG17.067 loaded with hIL-2, CD25 injected before CD122 and again after CD122
T7 construct: Humanized IgG1 LALA captured on the SPR chip and saturated with 50 nM hIL-2; also called BDG17.0067 complexed with hIL-2
T7 sequence (heavy, as listed by the source limits assumed, chain 1 of 3): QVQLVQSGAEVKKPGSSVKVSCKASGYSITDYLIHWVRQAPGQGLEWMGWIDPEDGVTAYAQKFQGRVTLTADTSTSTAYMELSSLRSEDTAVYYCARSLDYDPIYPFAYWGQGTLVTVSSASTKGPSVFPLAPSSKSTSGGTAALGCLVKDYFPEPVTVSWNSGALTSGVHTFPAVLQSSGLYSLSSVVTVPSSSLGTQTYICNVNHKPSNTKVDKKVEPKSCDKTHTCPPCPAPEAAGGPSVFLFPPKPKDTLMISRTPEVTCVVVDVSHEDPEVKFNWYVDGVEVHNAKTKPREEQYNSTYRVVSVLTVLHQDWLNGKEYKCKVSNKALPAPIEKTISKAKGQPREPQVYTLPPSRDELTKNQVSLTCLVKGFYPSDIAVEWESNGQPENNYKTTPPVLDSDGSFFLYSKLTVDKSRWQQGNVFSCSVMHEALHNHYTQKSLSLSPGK
T7 sequence (light, as listed by the source limits assumed, chain 2 of 3): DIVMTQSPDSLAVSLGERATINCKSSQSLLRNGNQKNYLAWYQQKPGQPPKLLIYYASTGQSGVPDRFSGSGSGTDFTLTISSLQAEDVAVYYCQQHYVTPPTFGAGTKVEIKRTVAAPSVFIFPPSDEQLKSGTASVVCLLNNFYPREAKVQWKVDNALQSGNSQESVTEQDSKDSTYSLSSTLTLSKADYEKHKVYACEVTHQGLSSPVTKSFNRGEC
T7 sequence (P60568 21-153 limits assumed, chain 3 of 3): as the sequence (P60568 21-153 limits assumed) above
Text: as §1, §2

[8] = target: T8, BDG17.069 complexed with hIL-2 (human, UniProt P60568 21-153); test: SPR, captured BDG17.069 loaded with hIL-2, CD25 injected before CD122 and again after CD122
T8 construct: Humanized IgG1 LALA captured on the SPR chip and saturated with 50 nM hIL-2
T8 sequence (heavy, as listed by the source limits assumed, chain 1 of 3): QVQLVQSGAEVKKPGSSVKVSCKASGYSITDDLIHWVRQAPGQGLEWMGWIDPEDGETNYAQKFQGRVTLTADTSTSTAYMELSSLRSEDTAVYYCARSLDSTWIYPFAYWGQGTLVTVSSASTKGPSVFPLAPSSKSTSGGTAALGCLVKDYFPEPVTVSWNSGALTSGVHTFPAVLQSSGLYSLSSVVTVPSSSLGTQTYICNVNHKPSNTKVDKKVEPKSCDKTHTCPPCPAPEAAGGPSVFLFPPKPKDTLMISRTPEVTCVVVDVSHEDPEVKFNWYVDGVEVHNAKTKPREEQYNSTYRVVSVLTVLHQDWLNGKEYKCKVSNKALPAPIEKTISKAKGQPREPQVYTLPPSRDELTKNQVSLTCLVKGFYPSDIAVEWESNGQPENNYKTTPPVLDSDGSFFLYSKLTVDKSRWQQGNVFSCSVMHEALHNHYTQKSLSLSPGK
T8 sequence (light, as listed by the source limits assumed, chain 2 of 3): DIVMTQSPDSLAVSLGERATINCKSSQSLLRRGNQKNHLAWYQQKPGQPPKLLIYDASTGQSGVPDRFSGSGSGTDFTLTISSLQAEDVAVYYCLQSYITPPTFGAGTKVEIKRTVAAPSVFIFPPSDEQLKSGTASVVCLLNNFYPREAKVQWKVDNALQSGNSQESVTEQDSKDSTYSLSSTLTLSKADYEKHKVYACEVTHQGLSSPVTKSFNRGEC
T8 sequence (P60568 21-153 limits assumed, chain 3 of 3): as the sequence (P60568 21-153 limits assumed) above
Text: as §1

[9] = target: T9, BDG17.054 complexed with hIL-2 (human, UniProt P60568 21-153); test: SPR, captured BDG17.054 loaded with 50 nM hIL-2, CD25 injected before CD122 and again after CD122
T9 construct: Humanized IgG1 captured on the SPR chip and saturated with 50 nM hIL-2; also called BDG17.054/hIL-2
T9 sequence (VH, as listed by the source limits assumed, chain 1 of 3): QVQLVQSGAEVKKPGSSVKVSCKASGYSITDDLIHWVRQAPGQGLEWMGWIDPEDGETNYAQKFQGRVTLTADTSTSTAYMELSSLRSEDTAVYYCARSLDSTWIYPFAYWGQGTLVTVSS
T9 sequence (VL, as listed by the source limits assumed, chain 2 of 3): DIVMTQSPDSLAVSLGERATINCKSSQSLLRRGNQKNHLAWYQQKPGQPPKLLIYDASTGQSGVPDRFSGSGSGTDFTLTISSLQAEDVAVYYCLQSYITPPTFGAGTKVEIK
T9 sequence (P60568 21-153 limits assumed, chain 3 of 3): as the sequence (P60568 21-153 limits assumed) above
Text: as §1, §2

- binding result (human IL-2 [1]): binds
B4: clone 6 (17.035) scFv, yeast surface display clone (scFv)
scFv: EIQLQQSGPELRRPGSSVKLSCKASGYNITDYLIHWVRHRPEHGLEWIGWIDPEDGETRYAQKFQSKATLTADTSSNAAYMQLSSLTPEDTATYFCARSLDSTYNYPFAYWGQGTLVTVSSGGGGSGGGGSGGGGSDIVMTQSPFSLAVSEGEMVTINCKSSQSLLRSGNQKNYLAWYQQKPGQSPKLLIYYASTGQSGVPDRFIGSGSGTDFTLTISDVQAEDLADYYCLQHWISPPTFGAGTKLELK

- binding result (human IL-2 [1]): binds
B5: clone 5 (17.030) scFv, yeast surface display clone (scFv)
scFv: B4 scFv with N105D, W234Y

- binding result (human IL-2 [2]): binds
B6: clone C #7 (173R5C1-17.002) (scFv)
scFv: B4 scFv with Y104P, N105I, W234Y, S236T
notes: Yeast surface display clone from the JES6.1 scFv library

- binding result [3]: no binding (tested: 1000 nM)
- binding result [4]: no binding
- binding result (BDG17.023-hIL-2 complex): no binding (tested: 1000 nM)
- binding result [5]: no binding (tested: 1000 nM CD25)
- binding result [6]: no binding
- binding result [7]: no binding
- binding result [8]: no binding
- binding result [9]: no binding (tested: 1000 nM)
B7: human CD25 (receptor, UniProt P01589 22-240, looked up)
chain: ELCDDDPPEIPHATFKAMAYKEGTMLNCECKRGFRRIKSGSLYMLCTGNSSHSSWDNQCQCTSSATRNTTKQVTPQPEEQKERKTTEMQSPMQPVDQASLPGHCREPPPWENEATERIYHFVVGQMVYYQCVQGYRALHRGPAESVCKMTHGKTRWTQPQLICTGEMETSQFPGEEKPQASPEGRPESETSCLVTTTDFQIQTEMAATMETSIFTTEYQ
notes: also called IL-2R alpha

Second part, the binder before the results:

B1: clone 2 (17.022) scFv, yeast surface display clone (scFv)
scFv: B4 scFv with Y104W, N105I, W234Y, S236T
- binding result (human IL-2 [1]): binds

B2: clone 1 (17.021) scFv, yeast surface display clone (scFv)
scFv: B4 scFv with Y32N, N105I, W234Y, I235Q
- binding result (human IL-2 [1]): binds

B3: clone 4 (17.023) scFv, yeast surface display clone (scFv)
scFv: B4 scFv with S99Q, N105I, W234Y, S236T
- binding result (human IL-2 [1]): binds
